How the values were obtained:
[1] = molecular target: T1, Cad-7 37-mer peptide linked to BSA (UniProt Q9ULB5 48-84, limits assumed, linked to BSA); assay: ELISA, BSA-coupled 37-mer cadherin peptide coated at 500 ng/ml, A450
T1 construct: also called Cad-7 antigen; Cad-7 peptide
T1 peptide (looked up): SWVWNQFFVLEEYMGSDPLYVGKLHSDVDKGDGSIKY
Description: (§1) REACTI-BIND™ plates (ThermoScientific) were coated with 500 ng/ml of the BSA coupled cadherin 37-mer peptide (NE peptide) corresponding to Cadherins-7, -8, -9, -11, -18, -20, and -24 in 0.05% TWEEN® detergent (EMD, product code 9480) in PBS (pH 7.2) (Gibco(Invitrogen), #20012) at 100 μl volume/well for overnight at 4° C. The peptide containing solution was removed from the well and the plate blocked with a 2% bovine serum albumin (BSA) in PBS, 200 μl volume/well, for 2 h at 22° C. The plate was then washed twice with 200 μl/well of PBS-TWEEN® detergent 0.05% at 22° C. and blotted dry. A dilution series from 5 μg/ml to 8 ng/ml in a volume of 100 μl/well of each the humanized anti-Cad-11 antibodies were incubated in the petide coated wells and incubated at 22° C. for 1 hr. Antibody solution was removed from the wells and the plate washed twice with 200 μl/well of 0.05% TWEEN® detergent-PBS at 22° C. and blotted dry. The goat-anti mouse IgG (Pierce #31432) was added to each well to plate at a 1:1000 dilution, 100 μl/well and incubate at 22° C. for 30 min. The secondary antibody solution was removed and the plate washed twice with 200 μl/well of 0.05% TWEEN® detergent-PBS at 22° C. and blotted dry. The reaction was developed by adding 100 μl/well tetramethylbenzidine (TMB) reagent IgG (Pierce #34022, 1 step Turbo TMB-ELISA) to plate and developed at 22° C. for 5 min.

[2] = molecular target: T2, Cad-9 37-mer peptide linked to BSA (UniProt Q9ULB4 54-90, limits assumed, linked to BSA); assay: as above
T2 construct: also called Cad-9 antigen; Cad-9 peptide
T2 peptide (looked up): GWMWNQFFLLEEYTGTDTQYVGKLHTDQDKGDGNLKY
Description: as §1

[3] = molecular target: T3, recombinant Cad-11 EC1 human IgG1 fusion protein (R&D Systems Cat. No. 1790-CA-050) (human, UniProt P55287 54-617, limits assumed); assay: competition ELISA against biotinylated SYN0012/H1M1 (competitor) on coated fusion protein; text says values are normalised to the IC50 of SYN0012
T3 construct: bought; also called recombinant human Cad-11 EC1; recombinant human Cad-11 fusion protein; not shown: human IgG1 part
T3 sequence: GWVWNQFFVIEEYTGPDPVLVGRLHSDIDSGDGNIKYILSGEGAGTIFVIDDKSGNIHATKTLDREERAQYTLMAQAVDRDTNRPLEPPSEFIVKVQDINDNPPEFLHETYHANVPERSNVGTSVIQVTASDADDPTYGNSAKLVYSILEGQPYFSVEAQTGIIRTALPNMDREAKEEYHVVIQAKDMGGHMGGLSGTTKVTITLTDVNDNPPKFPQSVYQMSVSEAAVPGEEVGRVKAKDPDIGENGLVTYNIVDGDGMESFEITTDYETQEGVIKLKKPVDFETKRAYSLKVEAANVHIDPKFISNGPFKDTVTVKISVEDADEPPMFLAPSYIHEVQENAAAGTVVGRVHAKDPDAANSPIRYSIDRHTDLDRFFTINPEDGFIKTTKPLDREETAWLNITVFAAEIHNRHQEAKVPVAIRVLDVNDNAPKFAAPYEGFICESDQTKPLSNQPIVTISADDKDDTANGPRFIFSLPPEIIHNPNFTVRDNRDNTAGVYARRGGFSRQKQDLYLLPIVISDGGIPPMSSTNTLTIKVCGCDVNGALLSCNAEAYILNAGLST
Description: (§2) The binding of the purified humanized composite variant antibodies (SDP011 to SDP151) to a recombinant Cad-11 EC1 human IgG1 fusion protein was assessed in a competition binding ELISA. A dilution series from 5 μg/ml to 0.0022 μg/ml of the humanized or control (SYN0012/H1M1) antibodies was premixed with a constant concentration of biotinylated murine anti-Cad-11 antibody, SYN0012/H1M1 (0.1 μg/ml, final concentration), before incubating for 1 hour at room temperature on a NUNC-IIMMUNO™ MAXISORP™ 96 well flat bottom microtitre plate (Fisher Cat. No. DIS-971-030J) pre-coated with 0.25 μg/ml recombinant human Cad-11 EC1 (R&D Systems Cat. No. 1790-CA-050) diluted in PBS. The binding of the biotinylated mAb was detected with streptavidin-HRP (Sigma Cat. No. 55512) and tetramethylbenzidine (TMB) substrate (Invitrogen Cat. No. 00-2023).
(§3) All of the humanized anti-Cad-11 antibodies efficiently competed with SYN0012 for binding to the Cad-11 fusion protein (FIGS. 38A to C). […] The curves were used to calculate IC50 values for each antibody and these were normalized to the IC50 of SYN0012, which was included on each ELISA plate so that comparisons between plates could be made (Table 3). The expression levels of each cell line and the calculated isoelectric point (pI) of each antibody are also shown (Table 3).
The relative IC50 was calculated by dividing the value for the test antibody by that of SYN0012. Antibody expression levels given are for static cultures in T flasks. PI are calculated.

[4] = molecular target: T4, recombinant his-tagged human Cad-11 (R&D Systems) (human, UniProt P55287 54-617); assay: SPR, rhCad-11 immobilized, SDP051 as analyte, 2-state reaction model; ka1
T4 construct: bought; also called rhCad-11; recombinant human Cad-11; not shown: his tag
T4 sequence: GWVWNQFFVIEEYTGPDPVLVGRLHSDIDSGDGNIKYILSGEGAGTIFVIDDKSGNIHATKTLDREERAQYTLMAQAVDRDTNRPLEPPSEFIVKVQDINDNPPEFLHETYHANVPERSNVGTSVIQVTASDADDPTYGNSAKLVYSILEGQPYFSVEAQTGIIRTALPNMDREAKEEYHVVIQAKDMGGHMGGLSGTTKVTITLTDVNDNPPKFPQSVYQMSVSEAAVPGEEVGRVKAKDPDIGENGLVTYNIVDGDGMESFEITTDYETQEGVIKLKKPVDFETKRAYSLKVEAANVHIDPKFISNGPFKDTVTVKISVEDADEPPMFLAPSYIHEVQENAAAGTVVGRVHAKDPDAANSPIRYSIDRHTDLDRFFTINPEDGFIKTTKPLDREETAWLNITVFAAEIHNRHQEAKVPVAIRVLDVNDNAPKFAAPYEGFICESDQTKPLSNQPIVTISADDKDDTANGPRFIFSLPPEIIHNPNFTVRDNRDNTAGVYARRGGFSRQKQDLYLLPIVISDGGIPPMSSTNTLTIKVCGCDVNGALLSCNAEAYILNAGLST
Description: (§4) To determine the affinity of SDP051 for recombinant his-tagged human Cad-11, rhCad-11 (R&D Systems) was immobilized to the chip at a single concentration, high resolution kinetics were determined for SDP051, and a 2-state reaction binding model was successfully fitted to the kinetic data.
(§5) Kinetic data were obtained at a flow rate of 40 μL/min to minimize any potential mass transfer effects. An analyte concentration series ranging from 12.5 nM to 0.195 nM was prepared by serial dilution. Two repeats of the blank (no mAb) and the 3.125 nM (first and last cycle) concentration of the analyte were programmed into the kinetic runs in order to check the stability of both the surface and analyte over the kinetic cycles. The SDP051 was injected over the Fcs for 360 seconds, long enough to observe the curvature in association phase.

[5] = molecular target: T3, recombinant Cad-11 EC1 human IgG1 …; assay: competition ELISA on coated recombinant human Cad-11 EC1 fusion protein against biotinylated SYN0012 (0.1 µg/ml)
Description: as §2, §3

[6] = molecular target: T4, recombinant his-tagged human Cad-11 …; assay: SPR, rhCad-11 immobilized, SDP051 as analyte, 2-state reaction model; kd1
Description: as §4, §5

[7] = molecular target: T4, recombinant his-tagged human Cad-11 …; assay: SPR, rhCad-11 immobilized, SDP051 as analyte, 2-state reaction model
Description: as §4, §5

- binding result [1]: no binding (tested: 5000 ng/ml)
- binding result [2]: no binding (tested: 5000 ng/ml)
- IC50 [3]: 0.99 µg/mL
- kon [4]: 613000 M⁻¹ s⁻¹
- IC50 (read off the curve) [5]: ~0.2 µg/mL
- koff [6]: 0.0043 s⁻¹
- Kd [7]: 379 pM
B1: SDP051 humanized anti-Cad-11 EC1 antibody (Vκ1/VH5) (antibody, IgG4, V domains shown)
VH: EVQLVQSGAEVKKPGASVKVSCKASGYSFTGYFMNWVRQAPGQGLEWIGRINPYTGDTFYNQKFKGRVTITVDKSTSTAYMELSSLRSEDTAVYYCGRLGSRYWYFDVWGQGTTVTVSS
VL: DVLMTQTPLSSPVTLGQPASISCRSSQSIIHSNGNTYLEWYLQKPGQSPQLLIYKVSNRFSGVPDRFTGSGSGTDFTLKISRVEAEDVGVYYCFQGSHVPWTFGQGTKLEIK
notes: humanized IgG4 (S241P), kappa
